Values belong to the binder of their own block, whether it stands above or below them.
Legend:
Experiment in all cases: cross-linking; BS3 (unlabeled, or 50:50 with 2H12-labeled BS3) on the purified native holoenzyme; 150 mM NaPO4, 150 mM KOAc, pH 7.5, 5% glycerol, 2 mM DTT; procedure A 2.7 mM reagent 120 min on ice; trypsin digest, LC-MS/MS, Protein Prospector
Settings in all cases: both partners purified
[1] = target: T1, Med14 (Rgr1), Mediator subunit (S. cerevisiae, UniProt P19263 1-1082)
T1 construct: Med14 (Rgr1), S. cerevisiae, endogenous, residues 1-1082 spoken of; source: endogenous, S. cerevisiae CB010 double-tagged strain; within the purified native holoenzyme
T1 sequence (looked up): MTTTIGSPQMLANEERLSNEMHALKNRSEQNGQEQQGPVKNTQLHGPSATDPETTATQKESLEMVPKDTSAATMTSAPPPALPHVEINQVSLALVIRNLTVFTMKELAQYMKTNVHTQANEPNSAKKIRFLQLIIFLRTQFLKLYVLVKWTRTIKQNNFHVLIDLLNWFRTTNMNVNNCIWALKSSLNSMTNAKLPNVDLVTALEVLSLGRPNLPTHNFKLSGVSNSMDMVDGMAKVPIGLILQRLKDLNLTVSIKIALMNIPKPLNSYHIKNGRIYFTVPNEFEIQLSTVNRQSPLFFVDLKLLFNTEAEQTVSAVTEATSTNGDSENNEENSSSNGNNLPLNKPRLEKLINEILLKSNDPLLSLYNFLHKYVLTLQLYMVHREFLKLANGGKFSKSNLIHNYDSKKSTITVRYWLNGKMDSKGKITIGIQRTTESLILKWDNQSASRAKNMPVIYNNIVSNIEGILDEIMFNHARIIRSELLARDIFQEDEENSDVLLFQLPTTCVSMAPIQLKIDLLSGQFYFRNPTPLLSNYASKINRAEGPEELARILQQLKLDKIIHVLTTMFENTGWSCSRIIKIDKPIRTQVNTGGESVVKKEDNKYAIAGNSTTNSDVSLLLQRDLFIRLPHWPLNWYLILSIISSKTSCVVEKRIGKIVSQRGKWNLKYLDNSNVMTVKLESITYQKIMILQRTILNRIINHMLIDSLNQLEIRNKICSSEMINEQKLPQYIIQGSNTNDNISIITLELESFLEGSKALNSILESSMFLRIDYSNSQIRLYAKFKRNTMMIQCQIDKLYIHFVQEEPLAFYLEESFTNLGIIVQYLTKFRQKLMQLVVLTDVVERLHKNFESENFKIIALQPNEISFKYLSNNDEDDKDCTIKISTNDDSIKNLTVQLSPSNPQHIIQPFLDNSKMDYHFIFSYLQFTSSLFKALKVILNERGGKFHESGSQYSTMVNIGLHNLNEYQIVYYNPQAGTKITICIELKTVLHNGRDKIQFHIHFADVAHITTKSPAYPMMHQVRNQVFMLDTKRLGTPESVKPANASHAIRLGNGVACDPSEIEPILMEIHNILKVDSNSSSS

[2] = target: T2, Med1, Mediator Middle module subunit (S. cerevisiae, UniProt Q12321 1-566)
T2 construct: Med1, S. cerevisiae, endogenous; source: endogenous, S. cerevisiae CB010 double-tagged strain; within the purified native holoenzyme
T2 sequence (looked up): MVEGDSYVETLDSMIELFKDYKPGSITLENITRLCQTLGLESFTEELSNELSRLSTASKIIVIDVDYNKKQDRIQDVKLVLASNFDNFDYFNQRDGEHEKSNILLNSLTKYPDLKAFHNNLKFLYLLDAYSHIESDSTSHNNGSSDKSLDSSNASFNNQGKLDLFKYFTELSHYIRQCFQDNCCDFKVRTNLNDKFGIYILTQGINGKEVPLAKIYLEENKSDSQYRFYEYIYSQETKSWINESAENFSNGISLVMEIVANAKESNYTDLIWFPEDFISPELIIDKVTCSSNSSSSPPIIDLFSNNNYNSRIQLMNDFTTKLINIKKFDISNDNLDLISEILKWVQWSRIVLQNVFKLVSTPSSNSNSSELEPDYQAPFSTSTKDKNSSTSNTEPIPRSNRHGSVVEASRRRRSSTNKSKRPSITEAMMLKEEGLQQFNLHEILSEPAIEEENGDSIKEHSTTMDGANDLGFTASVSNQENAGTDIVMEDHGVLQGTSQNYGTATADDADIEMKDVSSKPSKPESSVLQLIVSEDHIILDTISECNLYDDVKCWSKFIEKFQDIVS

[3] = target: T3, Med17 (Srb4), Mediator Head module subunit (S. cerevisiae, UniProt P32569 1-687)
T3 construct: Med17 (Srb4), S. cerevisiae, endogenous, residues 1-687 spoken of; cross-linking was done after cleavage; also called Med17p; source: endogenous, S. cerevisiae CB010 double-tagged strain; within the purified native holoenzyme; not shown: TAP, N-terminal, cleaved
T3 sequence (looked up): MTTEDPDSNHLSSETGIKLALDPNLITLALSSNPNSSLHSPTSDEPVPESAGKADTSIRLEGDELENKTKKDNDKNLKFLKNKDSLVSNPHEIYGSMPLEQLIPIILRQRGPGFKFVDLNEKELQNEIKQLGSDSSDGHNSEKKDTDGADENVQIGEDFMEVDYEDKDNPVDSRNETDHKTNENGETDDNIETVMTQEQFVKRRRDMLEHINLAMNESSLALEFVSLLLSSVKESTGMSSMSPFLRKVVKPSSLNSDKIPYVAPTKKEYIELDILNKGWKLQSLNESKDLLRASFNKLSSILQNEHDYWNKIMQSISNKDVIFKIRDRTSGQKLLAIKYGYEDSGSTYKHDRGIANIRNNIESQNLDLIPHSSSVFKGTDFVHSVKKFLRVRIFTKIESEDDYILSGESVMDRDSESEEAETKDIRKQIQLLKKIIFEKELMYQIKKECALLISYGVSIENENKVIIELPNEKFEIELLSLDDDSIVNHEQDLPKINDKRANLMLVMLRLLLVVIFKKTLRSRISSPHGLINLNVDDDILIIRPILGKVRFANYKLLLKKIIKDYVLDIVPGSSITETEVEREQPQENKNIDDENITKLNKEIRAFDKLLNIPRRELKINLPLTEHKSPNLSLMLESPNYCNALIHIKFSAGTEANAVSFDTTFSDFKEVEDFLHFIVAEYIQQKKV

- binding result [1]: binds
- binding result [2]: binds
B1: Med9 (Cse2), Mediator Middle module subunit (natural protein, S. cerevisiae, UniProt P33308 1-149, looked up)
chain: MNLQNNVLNQIHQILLPTNPTLDKPNAEATKEEFSSAENRDEKDYLTNQQPKNLSTPSTSSNGEFIPHIFYSLHQIRKDPNNLSNQLETLTGSIRHRLKLCKSLISENEDTKDLLSKSPSEWQDIIHQREQELQIKRDVLDDLYRKLQR
notes: Med9 (Cse2), S. cerevisiae, endogenous; source: endogenous, S. cerevisiae CB010 double-tagged strain; within the purified native holoenzyme

- binding result [1]: binds
- binding result [3]: binds
B2: Med21, Mediator Middle module subunit (natural protein, S. cerevisiae, UniProt P47822 1-140, looked up)
chain: MTDRLTQLQICLDQMTEQFCATLNYIDKNHGFERLTVNEPQMSDKHATVVPPEEFSNTIDELSTDIILKTRQINKLIDSLPGVDVSAEEQLRKIDMLQKKLVEVEDEKIEAIKKKEKLLRHVDSLIEDFVDGIANSKKST
notes: Med21 (printed old name Sbr7), S. cerevisiae, endogenous; also called Sbr7; source: endogenous, S. cerevisiae CB010 double-tagged strain; within the purified native holoenzyme

- binding result [3]: binds
B3: Med7, Mediator Middle module subunit (natural protein, S. cerevisiae, UniProt Q08278 1-222, looked up)
chain: MSNDPGNEVSSLYPPPPPYVKFFTQSNLEKLPKYKEKKAASAKQTAPNNSNGGSEEEITCALDYLIPPPMPKNQQYRAFGSIWQVKDQLPDLESMGLTQLYKKSTENESTNYQYKIQELRKLLKSLLLNYLELIGVLSINPDMYERKVENIRTILVNIHHLLNEYRPHQSRESLIMLLEEQLEYKRGEIREIEQVCKQVHDKLTSIQDTLRTGSQSPPSSSQ
notes: Med7, S. cerevisiae, endogenous; source: endogenous, S. cerevisiae CB010 double-tagged strain; within the purified native holoenzyme
